Experimental data as given in PMC5773487, “Harnessing insulin- and leptin-induced oxidation of PTP1B for therapeutic development” (Nature Communications, 2018).
Substitutions are numbered along the chain they refer to. Entries after “also recorded” stand apart in the source; their conditions may differ.

Legend:
[1] = biological target: T1, reversibly oxidized PTP1B-mut2 (L37F/K39E/K41R) (Homo sapiens, UniProt P18031, K39E/K41R/L37F); experiment: in vitro binding assay (anti-HA co-immunoprecipitation)
T1 construct: PTP1B (1–321) and TCPTP (1–317) cloned in pET21b vector were used as templates; 6xHis (C); made in house; host or cells: E. coli BL21 (DE3)-RIL
T1 sequence (P18031 1-321 L37F/K39E/K41R): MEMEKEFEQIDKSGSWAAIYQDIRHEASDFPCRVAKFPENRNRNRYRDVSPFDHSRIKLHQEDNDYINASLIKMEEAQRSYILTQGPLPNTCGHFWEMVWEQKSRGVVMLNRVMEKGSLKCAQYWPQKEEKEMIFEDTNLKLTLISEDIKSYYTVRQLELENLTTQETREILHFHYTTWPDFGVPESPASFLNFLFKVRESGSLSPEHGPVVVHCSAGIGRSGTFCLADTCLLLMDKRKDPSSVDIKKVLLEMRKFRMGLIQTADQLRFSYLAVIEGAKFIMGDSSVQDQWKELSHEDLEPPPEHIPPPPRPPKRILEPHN
Experimental: (§1) Purified proteins (wt or mutant form of PTP1B or TCPTP (50 nM)) were reversibly oxidized with […] H2O2 followed by a buffer exchange using 0.5 mL Zeba spin desalting columns 7K MWCO (Thermo Fisher Scientific) to remove H2O2. Increasing concentration of purified HA-tagged scFv45 (0–10 µM) was incubated with oxidized proteins in binding buffer (20 mM HEPES, pH 7.4, 300 mM NaCl, 0.05% BSA, 0.05% Tween-20) for 2 h at 4 °C. Anti-HA agarose (Roche, 50% slurry equilibrated in the binding buffer) was added and incubated for 1 h at 4 °C. Protein complexes bound to anti-HA beads were immunoprecipitated and washed three times; first with lysis buffer followed by two more washes with wash buffer (25 mM HEPES, 100 mM NaCl pH 7.4, 0.05% BSA, 0.05% Tween-20, and protease inhibitors). The complexes were separated by SDS-PAGE and analyzed by immunoblotting.

[2] = biological target: T2, reversibly oxidized TCPTP-mut2 (F39L/E41K/R43K) (Homo sapiens, UniProt P17706, E41K/F39L/R43K); experiment: as above
T2 construct: PTP1B (1–321) and TCPTP (1–317) cloned in pET21b vector were used as templates; 6xHis (C); made in house; host or cells: E. coli BL21 (DE3)-RIL
T2 sequence (P17706 1-317 F39L/E41K/R43K): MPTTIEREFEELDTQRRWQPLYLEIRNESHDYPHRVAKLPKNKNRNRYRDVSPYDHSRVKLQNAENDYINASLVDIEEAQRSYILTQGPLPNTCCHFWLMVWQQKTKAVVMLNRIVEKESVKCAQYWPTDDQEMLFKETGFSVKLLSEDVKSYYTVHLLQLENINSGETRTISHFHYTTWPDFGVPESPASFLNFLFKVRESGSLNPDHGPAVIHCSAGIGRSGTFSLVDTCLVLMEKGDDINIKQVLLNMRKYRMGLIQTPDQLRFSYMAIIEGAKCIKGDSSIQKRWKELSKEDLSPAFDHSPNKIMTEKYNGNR
Experimental: as §1

reduced form of PTP1B = system: reduced form of PTP1B; set-up: method as in PMID 21962515; conditions: cited from earlier work
PTP1B-CASA-mut2 = biological target: T3, PTP1B-CASA-mut2 (Homo sapiens, UniProt P18031, C215A/K39E/K41R/L37F/S216A); experiment: analytical size-exclusion chromatography; format: binding; conditions: excess or limiting molar ratios
T3 construct: PTP1B (1–321) and TCPTP (1–317) cloned in pET21b vector were used as templates; made in house; host or cells: E. coli BL21 (DE3)-RIL
T3 sequence (P18031 1-321 L37F/K39E/K41R/C215A/S216A limits assumed): T1 sequence (P18031 1-321 L37F/K39E/K41R) with C215A, S216A
Experimental: Recombinant PTP1B-CASA, PTP1B-CASA-mut2, and scFv45 were purified as described. Proteins were exchanged into freshly prepared 50 mM ammonium bicarbonate pH 8 (Fig. 2a; Supplementary Fig. 1) using 0.5 mL Zeba spin desalting columns 7K MWCO (Thermo Fisher Scientific) as per manufacturers protocol. Designated protein constructs or buffer equivalents were mixed at 1.1 or 1.4 molar excess (excess reciprocated for both PTP1B and scFv45) and incubated on ice 20 min prior to injection (20 µL injection loop; 4–10 µg total protein), separation, and detection on a Dionex Ultimate 3000 HPLC connected to an XBridge Protein BEH SEC 200 Å, 3.5 µm, 7.8 mm × 300 mm column (Waters) flowing 200 mM ammonium acetate pH 7.0 isocratically at 0.86 mL min^−1 and 25 °C, monitoring absorbance at λ 280 nm (Fig. 2a; Supplementary Fig. 1). Injections were performed intermittently with BEH200Å SEC Protein Standard Mix (amount corrected for 20 µL injection loop; Waters Corp.) to monitor peak resolution and retention time consistency among runs.

TCPTP = system: TCPTP; set-up: method as in PMID 21962515; conditions: oxidized or reduced states; cited from earlier work

B1: scFv45: recombinant conformation-sensor single-chain variable fragment antibody recognizing oxidized PTP1B (antibody, V domains shown)
VH: TVTLDESGGGLQAPGGALSLVCKASGFTFSSYDMGWIRQAPGKGLEYVAGITDNGRYASYGSAVDGRATISRDNGQSSVRLQLNNLRAEDTGTYYCARDDGSGWTGNSIDAWGHGTEVIVSE
VL: ALTQPSSVSANPGGTVKITCSGSSSAYGYGWYQQKSPGSAPVTVIYNNNKRPSNIPSRFSGSKSGSTGTLTITGVQAEDEAVYFCGSEDSSTDAIFGAGTTLTVL
- binding to reversibly oxidized PTP1B-mut2 [1]: did not bind; also recorded: abrogated
- binding to reversibly oxidized TCPTP-mut2 [2]: promote binding
- binding to the reduced form of PTP1B (reduced form of PTP1B): did not bind
- association with PTP1B-CASA-mut2 (PTP1B-CASA-mut2): unable to associate
- binding to TCPTP (TCPTP): does not bind
